Data on seven molecules can be found in patent publication US20250339531A1, “DUX4 POLYPEPTIDES AND NUCLEIC ACIDS FOR TREATING INFLAMMATORY AND AUTOIMMUNE CONDITIONS” (Fred Hutchinson Cancer Center, priority 2021, published 2025).

To fix the notation:
B1: P17655 (protein, UniProt P17655 1-700, looked up)
chain: MAGIAAKLAKDREAAEGLGSHDRAIKYLNQDYEALRNECLEAGTLFQDPSFPAIPSALGFKELGPYSSKTRGIEWKRPTEICADPQFIIGGATRTDICQGALGDCWLLAAIASLTLNEEILARVVPLNQSFQENYAGIFHFQFWQYGEWVEVVVDDRLPTKDGELLFVHSAEGSEFWSALLEKAYAKINGCYEALSGGATTEGFEDFTGGIAEWYELKKPPPNLFKIIQKALQKGSLLGCSIDITSAADSEAITFQKLVKGHAYSVTGAEEVESNGSLQKLIRIRNPWGEVEWTGRWNDNCPSWNTIDPEERERLTRRHEDGEFWMSFSDFLRHYSRLEICNLTPDTLTSDTYKKWKLTKMDGNWRRGSTAGGCRNYPNTFWMNPQYLIKLEEEDEDEEDGESGCTFLVGLIQKHRRRQRKMGEDMHTIGFGIYEVPEELSGQTNIHLSKNFFLTNRARERSDTFINLREVLNRFKLPPGEYILVPSTFEPNKDGDFCIRVFSEKKADYQAVDDEIEANLEEFDISEDDIDDGFRRLFAQLAGEDAEISAFELQTILRRVLAKRQDIKSDGFSIETCKIMVDMLDSDGSGKLGLKEFYILWTKIQKYQKIYREIDVDRSGTMNSYEMRKALEEAGFKMPCQLHQVIVARFADDQLIIDFDNFVRCLVRLETLFKIFKQLDPENTGTIELDLISWLCFSVL
modifications: full-length
B2: P51784 (protein, UniProt P51784 1-963, looked up)
chain: MAVAPRLFGGLCFRFRDQNPEVAVEGRLPISHSCVGCRRERTAMATVAANPAAAAAAVAAAAAVTEDREPQHEELPGLDSQWRQIENGESGRERPLRAGESWFLVEKHWYKQWEAYVQGGDQDSSTFPGCINNATLFQDEINWRLKEGLVEGEDYVLLPAAAWHYLVSWYGLEHGQPPIERKVIELPNIQKVEVYPVELLLVRHNDLGKSHTVQFSHTDSIGLVLRTARERFLVEPQEDTRLWAKNSEGSLDRLYDTHITVLDAALETGQLIIMETRKKDGTWPSAQLHVMNNNMSEEDEDFKGQPGICGLTNLGNTCFMNSALQCLSNVPQLTEYFLNNCYLEELNFRNPLGMKGEIAEAYADLVKQAWSGHHRSIVPHVFKNKVGHFASQFLGYQQHDSQELLSFLLDGLHEDLNRVKKKEYVELCDAAGRPDQEVAQEAWQNHKRRNDSVIVDTFHGLFKSTLVCPDCGNVSVTFDPFCYLSVPLPISHKRVLEVFFIPMDPRRKPEQHRLVVPKKGKISDLCVALSKHTGISPERMMVADVFSHRFYKLYQLEEPLSSILDRDDIFVYEVSGRIEAIEGSREDIVVPVYLRERTPARDYNNSYYGLMLFGHPLLVSVPRDRFTWEGLYNVLMYRLSRYVTKPNSDDEDDGDEKEDDEEDKDDVPGPSTGGSLRDPEPEQAGPSSGVTNRCPFLLDNCLGTSQWPPRRRRKQLFTLQTVNSNGTSDRTTSPEEVHAQPYIAIDWEPEMKKRYYDEVEAEGYVKHDCVGYVMKKAPVRLQECIELFTTVETLEKENPWYCPSCKQHQLATKKLDLWMLPEILIIHLKRFSYTKFSREKLDTLVEFPIRDLDFSEFVIQPQNESNPELYKYDLIAVSNHYGGMRDGHYTTFACNKDSGQWHYFDDNSVSPVNENQIESKAAYVLFYQRQDVARRLLSPAGSSGAPASPACSSPPSSEFMDVN
modifications: full-length
B3: O94919 (protein, UniProt O94919 1-500, looked up)
chain: MGTARWLALGSLFALAGLLEGRLVGEEEAGFGECDKFFYAGTPPAGLAADSHVKICQRAEGAERFATLYSTRDRIPVYSAFRAPRPAPGGAEQRWLVEPQIDDPNSNLEEAINEAEAITSVNSLGSKQALNTDYLDSDYQRGQLYPFSLSSDVQVATFTLTNSAPMTQSFQERWYVNLHSLMDRALTPQCGSGEDLYILTGTVPSDYRVKDKVAVPEFVWLAACCAVPGGGWAMGFVKHTRDSDIIEDVMVKDLQKLLPFNPQLFQNNCGETEQDTEKMKKILEVVNQIQDEERMVQSQKSSSPLSSTRSKRSTLLPPEASEGSSSFLGKLMGFIATPFIKLFQLIYYLVVAILKNIVYFLWCVTKQVINGIESCLYRLGSATISYFMAIGEELVSIPWKVLKVVAKVIRALLRILCCLLKAICRVLSIPVRVLVDVATFPVYTMGAIPIVCKDIALGLGGTVSLLFDTAFGTLGGLFQVVFSVCKRIGYKVTFDNSGEL
modifications: full-length
B4: Q07065 (protein, UniProt Q07065 1-602, looked up)
chain: MPSAKQRGSKGGHGAASPSEKGAHPSGGADDVAKKPPPAPQQPPPPPAPHPQQHPQQHPQNQAHGKGGHRGGGGGGGKSSSSSSASAAAAAAAASSSASCSRRLGRALNFLFYLALVAAAAFSGWCVHHVLEEVQQVRRSHQDFSRQREELGQGLQGVEQKVQSLQATFGTFESILRSSQHKQDLTEKAVKQGESEVSRISEVLQKLQNEILKDLSDGIHVVKDARERDFTSLENTVEERLTELTKSINDNIAIFTEVQKRSQKEINDMKAKVASLEESEGNKQDLKALKEAVKEIQTSAKSREWDMEALRSTLQTMESDIYTEVRELVSLKQEQQAFKEAADTERLALQALTEKLLRSEESVSRLPEEIRRLEEELRQLKSDSHGPKEDGGFRHSEAFEALQQKSQGLDSRLQHVEDGVLSMQVASARQTESLESLLSKSQEHEQRLAALQGRLEGLGSSEADQDGLASTVRSLGETQLVLYGDVEELKRSVGELPSTVESLQKVQEQVHTLLSQDQAQAARLPPQDFLDRLSSLDNLKASVSQVEADLKMLRTAVDSLVAYSVKIETNENNLESAKGLLDDLRNDLDRLFVKVEKIHEKV
modifications: full-length
B5: Q86YD1 (protein, UniProt Q86YD1 1-416, looked up)
chain: MVRPRRAPYRSGAGGPLGGRGRPPRPLVVRAVRSRSWPASPRGPQPPRIRARSAPPMEGARVFGALGPIGPSSPGLTLGGLAVSEHRLSNKLLAWSGVLEWQEKRRPYSDSTAKLKRTLPCQAYVNQGENLETDQWPQKLIMQLIPQQLLTTLGPLFRNSQLAQFHFTNRDCDSLKGLCRIMGNGFAGCMLFPHISPCEVRVLMLLYSSKKKIFMGLIPYDQSGFVSAIRQVITTRKQAVGPGGVNSGPVQIVNNKFLAWSGVMEWQEPRPEPNSRSKRWLPSHVYVNQGEILRTEQWPRKLYMQLIPQQLLTTLVPLFRNSRLVQFHFTKDLETLKSLCRIMDNGFAGCVHFSYKASCEIRVLMLLYSSEKKIFIGLIPHDQGNFVNGIRRVIANQQQVLQRNLEQEQQQRGMGG
modifications: full-length
B6: P12814 (protein, UniProt P12814 1-892, looked up)
chain: MDHYDSQQTNDYMQPEEDWDRDLLLDPAWEKQQRKTFTAWCNSHLRKAGTQIENIEEDFRDGLKLMLLLEVISGERLAKPERGKMRVHKISNVNKALDFIASKGVKLVSIGAEEIVDGNVKMTLGMIWTIILRFAIQDISVEETSAKEGLLLWCQRKTAPYKNVNIQNFHISWKDGLGFCALIHRHRPELIDYGKLRKDDPLTNLNTAFDVAEKYLDIPKMLDAEDIVGTARPDEKAIMTYVSSFYHAFSGAQKAETAANRICKVLAVNQENEQLMEDYEKLASDLLEWIRRTIPWLENRVPENTMHAMQQKLEDFRDYRRLHKPPKVQEKCQLEINFNTLQTKLRLSNRPAFMPSEGRMVSDINNAWGCLEQVEKGYEEWLLNEIRRLERLDHLAEKFRQKASIHEAWTDGKEAMLRQKDYETATLSEIKALLKKHEAFESDLAAHQDRVEQIAAIAQELNELDYYDSPSVNARCQKICDQWDNLGALTQKRREALERTEKLLETIDQLYLEYAKRAAPFNNWMEGAMEDLQDTFIVHTIEEIQGLTTAHEQFKATLPDADKERLAILGIHNEVSKIVQTYHVNMAGTNPYTTITPQEINGKWDHVRQLVPRRDQALTEEHARQQHNERLRKQFGAQANVIGPWIQTKMEEIGRISIEMHGTLEDQLSHLRQYEKSIVNYKPKIDQLEGDHQLIQEALIFDNKHTNYTMEHIRVGWEQLLTTIARTINEVENQILTRDAKGISQEQMNEFRASFNHFDRDHSGTLGPEEFKACLISLGYDIGNDPQGEAEFARIMSIVDPNRLGVVTFQAFIDFMSRETADTDTADQVMASFKILAGDKNYITMDELRRELPPDQAEYCIARMAPYTGPDSVPGALDYMSFSTALYGESDL
modifications: full-length
B7: P29508 (protein, UniProt P29508 1-390, looked up)
chain: MNSLSEANTKFMFDLFQQFRKSKENNIFYSPISITSALGMVLLGAKDNTAQQIKKVLHFDQVTENTTGKAATYHVDRSGNVHHQFQKLLTEFNKSTDAYELKIANKLFGEKTYLFLQEYLDAIKKFYQTSVESVDFANAPEESRKKINSWVESQTNEKIKNLIPEGNIGSNTTLVLVNAIYFKGQWEKKFNKEDTKEEKFWPNKNTYKSIQMMRQYTSFHFASLEDVQAKVLEIPYKGKDLSMIVLLPNEIDGLQKLEEKLTAEKLMEWTSLQNMRETRVDLHLPRFKVEESYDLKDTLRTMGMVDIFNGDADLSGMTGSRGLVLSGVLHKAFVEVTEEGAEAAAATAVVGFGSSPTSTNEEFHCNHPFLFFIRQNKTNSILFYGRFSSP
modifications: full-length

The test system of one assay is proteins that co-immunoprecipitated with DUX4-CTD constructs expressed in MB135 myoblasts. Kind of assay: LC-MS of proteins co-immunoprecipitated with DUX4-CTD (Table 1) and western validation. The assay is classed as binding, human. Further details: key to 4. mL1dL2 + Dox + IFNG / 4. + IFNG mix / 4. longCTD + Dox + IFNG / 3. + IFNg + Dox longCTD / 3. + Dox longCTD / 3. + IFNG longCTD: peptide-spectrum matches (PSMs) per protein. Conditions: LC-MS counts of the listed protein co-immunoprecipitated with DUX4-CTD bait longCTD; experiment 4, Dox + IFNG. Summed up:
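FLAG-tagged DUX4-CTD expressed in doxycycline-induced MB135 myoblasts, some also IFNG-treated; nuclear lysates in pH 7.4 NP-40 IP buffer were pre-cleared, then anti-FLAG immunoprecipitated 3 h at 4 °C. For LC-MS, FLAG-peptide elution, in-gel trypsin digest, Orbitrap analysis; proteins with ≥2 PSMs in both experiments categorised and ranked by total PSMs.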
Take B1: the “4. longCTD + Dox + IFNG” value is reported as 3.

With B2, the “4. longCTD + Dox + IFNG” value amounted to 2.

For the molecule B3, the “4. longCTD + Dox + IFNG” value came to 2.

On to B4, for which the “4. longCTD + Dox + IFNG” value was found to be 13.

Turning to B5, the “4. longCTD + Dox + IFNG” value is given as 2.

As for B6, the “4. longCTD + Dox + IFNG” value was found to be 34.

The same assay, now with this note: bait longCTD; experiment 3, Dox only.
Consider B4, for which the “3. + Dox longCTD” value was found to be 30.

B5: the “3. + Dox longCTD” value was found to be 2.

For the molecule B6, the “3. + Dox longCTD” value amounted to 4.

Staying with this assay, now noted: bait longCTD; experiment 3, IFNG only, no doxycycline (bait at background level).
With B4, the “3. + IFNG longCTD” value is on record as 4.

Still in this assay, the particulars now being: bait longCTD; experiment 3, IFNg + Dox.
As for B1, the “3. + IFNg + Dox longCTD” value was found to be 1.

Turning to B2, the “3. + IFNg + Dox longCTD” value is on record as 1.

As to B3, the “3. + IFNg + Dox longCTD” value amounted to 1.

With B7, the “3. + IFNg + Dox longCTD” value is 2.

With B4, the “3. + IFNg + Dox longCTD” value is on record as 62.

For the molecule B6, the “3. + IFNg + Dox longCTD” value was determined as 13.

Staying with this assay, now noted: sum over all samples.
In the case of B1, the “SUM of PSMS” value turned out to be 4.

As for B2, the “SUM of PSMS” value was found to be 4.

As to B3, the “SUM of PSMS” value came out at 5.

As to B7, the “SUM of PSMS” value was 4.

As to B4, the “SUM of PSMS” value was 152.

Take B5: the “SUM of PSMS” value was found to be 4.

Consider B6, for which the “SUM of PSMS” value was found to be 82.
